# The supplement of paper PMC9170038
# System: MS2 coat protein
# Assay: apparent KD of MS2 coat protein; designed switch direction (-1 OFF switch, 1 ON switch): -1; higher = weaker reporter binding
# Method in brief: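 Designed RNA switches sharing common flanks were transcribed on Illumina chips by stalled E. coli RNA polymerase. They were titrated with SNAP-549-labelled MS2 coat protein, from 0.7 or 1.5 nM doubling to 3 µM, in Tris-HCl pH 7.5 buffer with KCl, MgCl2, BSA, DTT, tRNA and Tween-20. Titrations ran without input, with 200 uM small-molecule ligand, or with an oligonucleotide input. The apparent KD of each design is the median over its clusters, after curve-fitting of normalised cluster fluorescence.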
# [1] = input ligand: microRNA oligo, concentration not stated
# [2] = Eterna round: R95, input ligand: FMN 200 uM
# [3] = Eterna round: R95, input ligand: microRNA oligo, concentration not stated
# [4] = Eterna round: R95, input ligand: none
Sequence,apparent KD of MS2 coat protein (input ligand: FMN 200 uM) [µM],apparent KD of MS2 coat protein [1] [µM],apparent KD of MS2 coat protein (input ligand: none) [µM],apparent KD of MS2 coat protein [2] [µM],apparent KD of MS2 coat protein [3] [µM],apparent KD of MS2 coat protein [4] [µM]
"ACGAUGACAGAAAGAAGUCAAAAGACAUGAGGAUCACCCAUGUAGGAUAUGGCUACGAAAAGUAGUCAGAAGGACAUGUCAUCA [Omei Exc(NG) 3 Av3] (Eterna round: R96, puzzle: Exclusion NG 3)",0.0135,0.00879,0.0168,–,–,–
GAAAUGGUAGGAUAUACGAAAAAAAAGGGUAGAAAAAAAACACAUGAGGAUCACCCAUGUAGAAGGACCAAAAG [salish99_ex2_r3_088] (puzzle: Exclusion 2),–,–,–,0.0714,0.0319,0.0284
"CUAAAUCAUGUAGGAUAUGCGUGGCGAAGCUAUGCAGAAGGACAUGAGGAUCACCCAUGUCUUUCCGUCUGAGUACAGACGGGA [Mat - Exclusion NG 1 - Mod of JL - D45] (Eterna round: R96, puzzle: Exclusion NG 1)",0.155,0.0164,0.018,–,–,–
"GGUCCACAUGAGGAUCACCCAUGUUAGGAUAUCUCCCGCCUCCUCACUGGAGACGGACAGAGAAGGAACAUCAA [Vetibele] (Eterna round: R96, puzzle: Exclusion 1)",0.104,0.0205,0.0243,–,–,–
"AGUUGGCGAGGAUAUACAUGAGGAUCACCCAUGUAUGAGAUACGAGUAAGGUAAAUAUGUAGAAGGCGCUGACA [JR_Ex3_Sub077] (Eterna round: R97, puzzle: Exclusion 3)",0.052,–,0.0168,–,–,–
"AGUUGGCGAGGAUAUACAUGAGGAUCACCCAUGUGAAAUCGAGAAAAAAUAGGGAAAAGUAGAAGGCGCAGACA [Ruby 63] (Eterna round: R96, puzzle: Exclusion 3)",0.0282,0.0243,0.0287,–,–,–
UUUUUGUCAGGAUAUGCAUGUUUUUUUUUUUUUUUUUUCAUGCAGAAGGGACAUGAGGAUCACCCAUGUAGUUU [Ex4 - 3 - 10] (puzzle: Exclusion 4),–,–,–,0.0343,0.0234,0.0379
"GGUCAUCAAGUCAGGAUAUCGUCUAAUCAAUCAGGCGAGAAGGGACAUGAGGAUCACCCAUGUCGACUCAUCAG [Ex4 #6] (Eterna round: R97, puzzle: Brourd's mod of Exclusion 4)",0.13,–,0.0335,–,–,–
UCGGCGCGAGGAUAUACGUUUGCGCUUUUUCGUUUUUGCGUACAUGAGGAUCACCCAUGUAGAAGGCGCGCCGC [Apr-15 SS2-17] (puzzle: Exclusion 2),–,–,–,–,0.014,–
CUUUCGUGAGGAUAUCAGUAGUAAAUAAAUAAAAUUACUACUGAGAAGGCACAUGAGGAUCACCCAUGUUCCUC [salish99_ex3_r3_096] (puzzle: Exclusion 4),–,–,–,–,0.0235,–
"AGCUCACAUGAGGAUCACCCAUGUCAGGAUAUCGACUGAACAGCUUCGGCUGUUCAGUCGAGAAGGGACAAUUA [Brourdxlusion 5 - Jieux - Exclusion 1] (Eterna round: R97, puzzle: Exclusion 1)",0.182,–,0.0597,–,–,–
CUUUUGUGAGGAUAUCAGUGGUAAAACAAUAGUAUUACUACUGAGAAGGCACAUGAGGAUCACCCAUGUUCCUC [Mat - Exclusion 4 - Mod of Omei - D85] (puzzle: Exclusion 4),–,–,–,–,0.0427,–
"UAAAAGAAAGUAAGGAUAUCUAAAUUGGAAAAGAGAGAGAAGGUACAUGAGGAUCACCCAUGUAGGGUAUCCUG [Ritien] (Eterna round: R97, puzzle: Brourd's mod of Exclusion 4)",0.0418,–,0.0422,–,–,–
GGAUCGAGUGUGAGGAUAUGCUGGUCCUUGGAUCAGCAGAAGGCACAUGAGGAUCACCCAUGUGAAAACGGUCC [Mat - Exclusion 4 - JL Mod - D70] (puzzle: Brourd's mod of Exclusion 4),–,–,–,–,0.0227,–
"AAGAAACAUGAGGAUCACCCAUGUGAGGAUAUGAACCGCCCGGCGUAAGCAAAAUAAAUCAGAAGGCACAAAGG [salish99_ex1_r4_006] (Eterna round: R97, puzzle: Exclusion 1)",0.0383,–,0.0322,–,–,–
AAAAAACAAGGAUAUACUAAAAAAAAAUGUGUUAAUUUUUCACAUGAGGAUCACCCAUGUAGAAGGUGUUAAAA [JR_Exclusion2_Sub006] (puzzle: Exclusion 2),–,–,–,0.0547,0.079,0.0936
"GUGGUUUGUGUAGGAUAUUCGUUUGUGCGGUGCGGAGAAGGACAUGAGGAUCACCCAUGUGUGCGAGGAUCACCCGUGUGUUGU [double 2 (less A)] (Eterna round: R96, puzzle: Exclusion NG 1)",0.0556,0.0403,0.0505,–,–,–
AGGUAACAUGAGGAUCACCCAUGUCAGGAUAUCAGUAAGAUGAGGAUAGAAUAGAGUAUGAGAAGGGACUAUAU [Excluse me! 22 - Jieux - Exclusion 1] (puzzle: Exclusion 1),–,–,–,0.034,0.0385,0.0476

Sequence,apparent KD of MS2 coat protein (input ligand: FMN 200 uM) [µM],apparent KD of MS2 coat protein [1] [µM],apparent KD of MS2 coat protein (input ligand: none) [µM],apparent KD of MS2 coat protein [2] [µM],apparent KD of MS2 coat protein [3] [µM],apparent KD of MS2 coat protein [4] [µM]
"GAACUAAGGCAAAGCUUUAGUCGUACAUGAGGAUCACCCAUGUAGGAUAUGGUAGGCAAAGCAUACCAGAAGGACAGAGUGAUC [Mat - Exclusion NG 3 - Mod of JL - D62] (Eterna round: R96, puzzle: Exclusion NG 3)",0.387,0.363,0.22,–,–,–
"GGAGCAAUGGAGGAUAUCAGGAGCGCUGCUUACUGAGAAGGCCGUACAUGAGGAUCACCCAUGUCUGGGUACGC [Eternabot (L1) Solution 21] (Eterna round: R97, puzzle: Exclusion 6)",0.176,–,0.167,–,–,–
"GACUUGUCAGGAUAUCUUACAUUAACAUCGUAGUUACCGUUGGAGAAGGGACAUGAGGAUCACCCAUGUUUGGC [tap-tap-tappy25] (Eterna round: R97, puzzle: Exclusion 4)",0.0418,–,0.0287,–,–,–
"ACAUGAGGAUCACCCAUGUCCGGUUGGUUUUCUCCGGCUGUUGAGGAUAUAGUCCGGUAUCCGCGCUAGAAGGUGAGGGUUGGC [Aenatbe mod 12] (Eterna round: R96, puzzle: Exclusion NG 3)",0.212,0.125,0.165,–,–,–
UUUGUACAUGAGGAUCACCCAUGUUAGGAUAUCUCGCCGUCGGCUUGCCGACGGUAUUAGAGAAGGGACAAGGG [JL Tixe mod 8] (puzzle: Exclusion 1),–,–,–,–,0.0942,–
"UUCAUGUUAGGAUAUUCCGCUGCAGAGAAAGAGUGCAGAAUGAAGAAGGGACAUGAGGAUCACCCAUGUUCCAA [EX4 A.8] (Eterna round: R97, puzzle: Exclusion 4)",0.0195,–,0.0155,–,–,–
"CUGCUCCGUGUAGGAUAUGCGCGCAACCAACGCGCAGAAGGACAUGAGGAUCACCCAUGUAUGUUAUUAUCACGUGAGGCGCAA [Design 32] (Eterna round: R96, puzzle: Exclusion NG 1)",0.0257,0.0138,0.0185,–,–,–
AGAAAGGCAGGAUAUCGAUAAUAAAACAUGAGGAUCACCCAUGUGAGGCCGCGUGUAACUCGAGAAGGGCUACACG [Biarquma] (puzzle: Exclusion 5),–,–,–,0.0161,0.0166,0.0154
GUGUACAGAGGAUAUACACGAGUAGUUACGAAAGUAACUACACAUGAGGAUCACCCAUGUAGAAGGCUGUACAC [Dot plot directed] (puzzle: Exclusion 2),–,–,–,–,0.0204,–
AAGUAUAGAGGAUAUAGUGAGUACUACAUGAGGAUCACCCAUGUUCUUCAAAGCGUAUUUCUAGAAGGCUAAUGAA [EX-5 Malc#14] (puzzle: Exclusion 5),–,–,–,–,0.0433,–
"CUCUUACAUGAGGAUCACCCAUGUGAGGAUAUGCCCGGAGUAGCAGCAGAUCCUCUGGGCAGAAGGCACGUAGG [Eternabot (L1) Solution 98] (Eterna round: R97, puzzle: Exclusion 1)",0.144,–,0.123,–,–,–
AAUAAGUGAGGAUAUGCAAUAAUAAAUAAAAUAAUAAAUAAGCAGAAGGCACAUGAGGAUCACCCAUGUAAUAA [JMF's solution 1] (puzzle: Exclusion 4),–,–,–,0.0292,0.0208,0.0216
"AUGAUACAUGAGGAUCACCCAUGUGAGGAUAUGAAGUUAUAAUACAUACUAUACAUCUUCAGAAGGCAUAUGUG [E1 S1 6/16] (Eterna round: R97, puzzle: Exclusion 1)",0.229,–,0.109,–,–,–
"UAUUAGCAAGCAAAUGGGUACAUGAGGAUCACCCAUGUGCUCGUCUUAUAAGGUACUGUGACGAAAGUCACGGUCCC [mod--Eli7] (Eterna round: R97, puzzle: Sensor, turn-off variant 1)",0.023,–,0.024,–,–,–
UUCCUGUCAGGAUAUGACUAGAUGCACGUUAGUGUGUUUACUUAGAAGGGACAUGAGGAUCACCCAUGUAUUCC [Bring Us a Shrubbery-15] (puzzle: Exclusion 4),–,–,–,–,0.0251,–
"AAUAAUGAUAAGGAUAUCACUAGCUGCGGCUAGUGAGAAGGUAUCACAUGAGGAUCACCCAUGUGUUCCAAUAA [Ex6/6-A3] (Eterna round: R97, puzzle: Exclusion 6)",0.0331,–,0.0141,–,–,–
"GCUGCAAAUGUAGGAUAUCUGCACGUUUAGUGCAGAGAAGGACAUGAGGAUCACCCAUGUAGAUCAGCAGCAAUUAAUUUAAUU [ENG1/5-A2] (Eterna round: R96, puzzle: Exclusion NG 1)",0.48,0.0408,0.0452,–,–,–
